Test results from patent publication US20220220200A1 (published 2022).

Assays:
FMC63 = experiment: BLI
[1] = molecular target: T1, CD19 antigen (analyte of the Octet affinity assay) (UniProt P15391 20-291); experiment: BLI
T1 chain: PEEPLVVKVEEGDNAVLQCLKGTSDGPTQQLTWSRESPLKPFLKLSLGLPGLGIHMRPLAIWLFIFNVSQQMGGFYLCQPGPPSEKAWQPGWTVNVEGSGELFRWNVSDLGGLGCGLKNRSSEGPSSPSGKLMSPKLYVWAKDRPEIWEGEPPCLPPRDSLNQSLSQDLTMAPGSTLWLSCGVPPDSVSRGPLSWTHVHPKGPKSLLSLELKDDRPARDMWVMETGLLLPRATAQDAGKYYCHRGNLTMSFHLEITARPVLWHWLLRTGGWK

Binder	Kd (FMC63)	Kd [1]
CD19 antigen (receptor) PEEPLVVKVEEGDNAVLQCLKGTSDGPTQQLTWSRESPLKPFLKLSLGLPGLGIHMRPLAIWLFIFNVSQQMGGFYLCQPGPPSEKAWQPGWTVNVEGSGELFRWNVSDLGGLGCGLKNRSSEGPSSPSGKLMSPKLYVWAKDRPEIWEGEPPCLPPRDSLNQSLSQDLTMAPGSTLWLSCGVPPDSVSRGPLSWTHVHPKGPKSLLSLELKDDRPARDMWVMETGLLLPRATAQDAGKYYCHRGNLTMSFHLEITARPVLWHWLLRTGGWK	10.7 nM	
#78 anti-CD19 scFv-rFc (Fc fusion) scFv: QAVLTQPPSVSEAPRQRVTISCSGSSSNIGNNAVSWYQQLPGKAPKLLIYYDDLLPSGVSDRFSGSKSGTSASLAISGLQSEDEADYYCAAWDDSLNGWVFGGGTKVTVLGSRGGGGSGGGGSGGGGSLEEVQLVQSGAEVKKPGESLKISCKGSGYSFTSYWIGWVRQMPGKGLEWMGIIYPGDSDTRYSPSFQGQVTISADKSISTAYLQWSSLKASDTAMYYCARLSYSWSSWYWDFWGQGTLVTVSS		21.9 nM
#62 anti-CD19 scFv-rFc (Fc fusion) scFv: QSVVTQPPSVSGAPGQRVTISCTGSSSNIGAGYDVHWYQQLPGTAPKLLIYENTNRPSGVPDRFSGSKSGTSASLAITGLQAEDEADYYCQSYDSSLSGWRVFGGGTKLTVLGSRGGGGSGGGGSGGGGSLEMAEVQLVQSGAEVKKPGESLKISCKGSGYSFTNSWIGWVRQMPGKGLEWMGLIYPDDSDTRYSPSFQGQVTISADSAINTAYLQWSSLKASDTAMYYCARQSTYIYGGYYDTWGQGTLVTVSS		51.1 nM
